According to patent US7291332B2, “Inflammatory mediator antagonists” (SmithKline Beecham Corporation, priority 1998, dated 2007):

Test system: HepG2 B6 cells (STAT-sPAP reporter)
Test: OSM-GST mutant driven sPAP production in HepG2 B6 assay
Assay type: cell-based, human
Settings: for 'Potency': relative to wild type, from Mean %
Experimental: HepG2 B6 cells were plated into 96 well plates to a final concentration of 3×10^4 cells per well in 100 μl of media (DMEM (Sigma), 10% HI FCS, 1% non-essential amino acids, 2 mM Glutamine, 500 μg ml^−1 G418, (all from Life Technologies)). Cells were allowed to equilibrate for 48 hours. Putative anti-OSM solid compounds were made up to a stock dilution of 20 mM in DMSO and serially diluted 1:3 in DMSO. This was then further diluted in HepG26B assay media, this is as above media but with 1% heat inactivated FCS, low alkaline phosphatase activity (Life Technologies) substituted for 10% HI FCS. Compounds were diluted 1:3 from a top concentration of […] to a final concentration of 0.09 μM in a final concentration of 1% DMSO. (That is 200, 66.67, 22.22, 7.41, 2.47, 0.82, 0.27, 0.09 and 0 μM). The old media was removed from the wells and replaced with diluted compound also containing 2 ng ml^−1 OSM (R&D Systems), cells were incubated for a further 20 hours. Each dilution was performed in triplicate. 20 μl of media was removed from each well and assayed for sPAP activity using pNPP (p-Nitrophenyl phosphate; Sigma), as a substrate. Endogenous alkaline phosphatase is blocked with L-homoarginine. Optical density of substrate is read at 405-650 nm. Concentration of compound is plotted against OD as a measure of sPAP produced and can be analysed to determine IC50 values.
The assay described in Example 7b above was employed. OSM-GST mutants were diluted to a concentration of 100 ng ml^−using the known concentration of intact OSM mutants generated in Example 9b. A wild type OSM-GST was included for control purposes. Dilutions were made in HepG2 B6 media with 1% heat inactivated FCS, low alkaline phosphatase activity. Serial 1:3 dilutions were then made. (100; 33.33; 11.11; 3.7; 1.23; 0.4 ng ml^−1). 3×10^4 HepG2 B6 were dispensed into individual well of a 96 well plate in 100 μl of media. Cells were allowed to equilibrate for 48 hours. Media was then removed and replaced with 100 μl of diluted OSM-GST mutant. Cells were incubated for a further 20 hours. Each dilution was performed in triplicate. 20 μl of media was removed and assayed for sPAP using pNPP as a substrate. Endogenous ALP was blocked with L-homoarginine. O.D. was read at 405-650 nm. The experiment was repeated twice.

Row | Expt 1 EC50 [µg/mL] | Expt 2 EC50 [µg/mL] | Molecule | 'Potency'
1 | 0.024 | 0.032 | wild type: wild type human OSM-GST fusion protein [reference compound] | 
2 | 0.0324 | 0.082 | (4) Y10A: OSM-GST fusion, alanine for Tyr 10 (protein, left off: a dimerising Fc or GST; large carriers; small tags and cut ends) AAIGSCSKEARVLLGQLQKQTDLMQDTSRLLDPYIRIQGLDVPKLREHCRERPGAFPSEETLRGLGRRGFLQTLNATLGCVLHRLADLEQRLPKAQDLERSGLNIEDLEKLQMARPNILGLRNNIYCMAQLLDNSDTAEPTKAGRGASQPPTPTPASDAFQRKLEGCRFLHGYHRFMHSVGRVFSKWGESPNRSRR | LESS (>120% Less potent than wild type)
3 | 0.0194 | 0.0249 | (7) L14A: OSM-GST fusion, alanine for Leu 14 (protein, left off: a dimerising Fc or GST; large carriers; small tags and cut ends) AAIGSCSKEYRVLAGQLQKQTDLMQDTSRLLDPYIRIQGLDVPKLREHCRERPGAFPSEETLRGLGRRGFLQTLNATLGCVLHRLADLEQRLPKAQDLERSGLNIEDLEKLQMARPNILGLRNNIYCMAQLLDNSDTAEPTKAGRGASQPPTPTPASDAFQRKLEGCRFLHGYHRFMHSVGRVFSKWGESPNRSRR | MORE (<80% More potent)
4 | 0.0236 | 0.0119 | (12) K19A: OSM-GST fusion, alanine for Lys 19 (protein, left off: a dimerising Fc or GST; large carriers; small tags and cut ends) AAIGSCSKEYRVLLGQLQAQTDLMQDTSRLLDPYIRIQGLDVPKLREHCRERPGAFPSEETLRGLGRRGFLQTLNATLGCVLHRLADLEQRLPKAQDLERSGLNIEDLEKLQMARPNILGLRNNIYCMAQLLDNSDTAEPTKAGRGASQPPTPTPASDAFQRKLEGCRFLHGYHRFMHSVGRVFSKWGESPNRSRR | MORE (<80% More potent)
5 | 0.021 | 0.0178 | (8) G15A: OSM-GST fusion, alanine for Gly 15 (protein, left off: a dimerising Fc or GST; large carriers; small tags and cut ends) AAIGSCSKEYRVLLAQLQKQTDLMQDTSRLLDPYIRIQGLDVPKLREHCRERPGAFPSEETLRGLGRRGFLQTLNATLGCVLHRLADLEQRLPKAQDLERSGLNIEDLEKLQMARPNILGLRNNIYCMAQLLDNSDTAEPTKAGRGASQPPTPTPASDAFQRKLEGCRFLHGYHRFMHSVGRVFSKWGESPNRSRR | MORE (<80% More potent)
6 | 0.0727 | 0.056 | (10) L17A: OSM-GST fusion, alanine for Leu 17 (protein, left off: a dimerising Fc or GST; large carriers; small tags and cut ends) AAIGSCSKEYRVLLGQAQKQTDLMQDTSRLLDPYIRIQGLDVPKLREHCRERPGAFPSEETLRGLGRRGFLQTLNATLGCVLHRLADLEQRLPKAQDLERSGLNIEDLEKLQMARPNILGLRNNIYCMAQLLDNSDTAEPTKAGRGASQPPTPTPASDAFQRKLEGCRFLHGYHRFMHSVGRVFSKWGESPNRSRR | LESS (>120% Less potent than wild type)
7 | 0.0202 | 0.0217 | (11) Q18A: OSM-GST fusion, alanine for Gln 18 (protein, left off: a dimerising Fc or GST; large carriers; small tags and cut ends) AAIGSCSKEYRVLLGQLAKQTDLMQDTSRLLDPYIRIQGLDVPKLREHCRERPGAFPSEETLRGLGRRGFLQTLNATLGCVLHRLADLEQRLPKAQDLERSGLNIEDLEKLQMARPNILGLRNNIYCMAQLLDNSDTAEPTKAGRGASQPPTPTPASDAFQRKLEGCRFLHGYHRFMHSVGRVFSKWGESPNRSRR | MORE (<80% More potent)
8 | 0.0367 | 0.016 | (15) D22: OSM-GST fusion, alanine for Asp 22 (protein, left off: a dimerising Fc or GST; large carriers; small tags and cut ends) AAIGSCSKEYRVLLGQLQKQTALMQDTSRLLDPYIRIQGLDVPKLREHCRERPGAFPSEETLRGLGRRGFLQTLNATLGCVLHRLADLEQRLPKAQDLERSGLNIEDLEKLQMARPNILGLRNNIYCMAQLLDNSDTAEPTKAGRGASQPPTPTPASDAFQRKLEGCRFLHGYHRFMHSVGRVFSKWGESPNRSRR | EQUAL (80-120% Equal potency)
9 | 0.0256 | 0.025 | (16) M113A: OSM-GST fusion, alanine for Met 113 (protein, left off: a dimerising Fc or GST; large carriers; small tags and cut ends) AAIGSCSKEYRVLLGQLQKQTDLMQDTSRLLDPYIRIQGLDVPKLREHCRERPGAFPSEETLRGLGRRGFLQTLNATLGCVLHRLADLEQRLPKAQDLERSGLNIEDLEKLQAARPNILGLRNNIYCMAQLLDNSDTAEPTKAGRGASQPPTPTPASDAFQRKLEGCRFLHGYHRFMHSVGRVFSKWGESPNRSRR | EQUAL (80-120% Equal potency)
10 | 0.017 | 0.0105 | (14) T21A: OSM-GST fusion, alanine for Thr 21 (protein, left off: a dimerising Fc or GST; large carriers; small tags and cut ends) AAIGSCSKEYRVLLGQLQKQADLMQDTSRLLDPYIRIQGLDVPKLREHCRERPGAFPSEETLRGLGRRGFLQTLNATLGCVLHRLADLEQRLPKAQDLERSGLNIEDLEKLQMARPNILGLRNNIYCMAQLLDNSDTAEPTKAGRGASQPPTPTPASDAFQRKLEGCRFLHGYHRFMHSVGRVFSKWGESPNRSRR | MORE (<80% More potent)
11 | 0.0286 | 0.0277 | (5) R11A: OSM-GST fusion, alanine for Arg 11 (protein, left off: a dimerising Fc or GST; large carriers; small tags and cut ends) AAIGSCSKEYAVLLGQLQKQTDLMQDTSRLLDPYIRIQGLDVPKLREHCRERPGAFPSEETLRGLGRRGFLQTLNATLGCVLHRLADLEQRLPKAQDLERSGLNIEDLEKLQMARPNILGLRNNIYCMAQLLDNSDTAEPTKAGRGASQPPTPTPASDAFQRKLEGCRFLHGYHRFMHSVGRVFSKWGESPNRSRR | EQUAL (80-120% Equal potency)
